Drawing on patent US20210371867A1 (SYSMEX, published 2021), this text covers binding result, Counts (PC, R3 reagent stored and S/N for 8 molecules.

The labels stand for the following.
T1: human CD80/B7-1 protein (His tag) (human, UniProt P33681 35-242)
T1 construct: Recombinant His-tagged protein used as the antigen solution; also called antigen
T1 sequence (looked up): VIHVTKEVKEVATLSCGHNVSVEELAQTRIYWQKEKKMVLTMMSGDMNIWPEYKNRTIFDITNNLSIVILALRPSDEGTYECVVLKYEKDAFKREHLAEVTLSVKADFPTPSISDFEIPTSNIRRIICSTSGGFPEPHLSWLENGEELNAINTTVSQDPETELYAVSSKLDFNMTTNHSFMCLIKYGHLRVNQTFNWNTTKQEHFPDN

B1: ALP fusion antibody of Example 1 (GS1 linker): Fab of rabbit anti-CD80 antibody, Fd-GS1-BIAPII (Fab)
heavy: QSVEESGGRLVTPGTPLTLTCTASGFSLSNNAVSWVRQAPGEGLEWIGTISSNDNTYYATWAKGRFTISKTSTTVDLKITSPTTEDTATYFCAIYYYGYGYVFNLWGPGTLVTVSSGQPKAPSVFPLAPCCGDTPSSTVTLGCLVKGYLPEPVTVTWNSGTLTNGVRTFPSVRQSSGLYSLSSVVSVTSSSQPVTCNVAHPATNTKVDKTVAPSTCSKPTGGGGSLIPAEEENPAFWNRQAAQALDVAKKLQPIQTAAKNVILFLGDGMGVPTVTATRILKGQMNGKLGPETPLAMDQFPYVALSKTYNVDRQVPDSAGTATAYLCGVKGNYRTIGVSAAARYNQCNTTRGNEVTSVINRAKKAGKAVGVVTTTRVQHASPAGAYAHTVNRNWYSDADLPADAQKNGCQDIAAQLVYNMDIDVILGGGRMYMFPEGTPDPEYPDDASVNGVRKDKQNLVQEWQAKHQGAQYVWNRTALLQAADDSSVTHLMGLFEPADMKYNVQQDHTKDPTLAEMTEAALQVLSRNPRGFYLFVEGGRIDHGHHDGKAYMALTEAIMFDNAIAKANELTSELDTLILVTADHSHVFSFGGYTLRGTSIFGLAPGKALDSKSYTSILYGNGPGYALGGGSRPDVNGSTSEEPSYRQQAAVPLASETHGGEDVAVFARGPQAHLVHGVQEETFVAHIMAFAGCVEPYTDCNLPAPA
light: ELVMTQTPASVSEPVGGTVTINCQASEDIYSSLAWYQQKPGQRPKLLMYYASTLASGVPSRFKGSGSGTEFTLTISDLECADAATYYCQSYYLSSSSRYGNAFGGGTEVVVKGDPVAPTVLIFPPAADQVATGTVTIVCVANKYFPDVTVTWEVDGTTQTTGIENSKTPQNSADCTYNLSSTLTLTSTQYNSHKEYTCKVTQGTTSVVQSFIG
notes: Fab-enzyme fusion; two ALP fusion Fab molecules form a complex by dimer formation of the ALP subunits; also called Fab-GS1-BIAPII; ALP fusion antibody (GS1 linker)
B2: ALP fusion antibody of Example 1 (GS2 linker): Fab of rabbit anti-CD80 antibody, Fd-GS2-BIAPII (Fab)
heavy: QSVEESGGRLVTPGTPLTLTCTASGFSLSNNAVSWVRQAPGEGLEWIGTISSNDNTYYATWAKGRFTISKTSTTVDLKITSPTTEDTATYFCAIYYYGYGYVFNLWGPGTLVTVSSGQPKAPSVFPLAPCCGDTPSSTVTLGCLVKGYLPEPVTVTWNSGTLTNGVRTFPSVRQSSGLYSLSSVVSVTSSSQPVTCNVAHPATNTKVDKTVAPSTCSKPTGGGGSGGGGSLIPAEEENPAFWNRQAAQALDVAKKLQPIQTAAKNVILFLGDGMGVPTVTATRILKGQMNGKLGPETPLAMDQFPYVALSKTYNVDRQVPDSAGTATAYLCGVKGNYRTIGVSAAARYNQCNTTRGNEVTSVINRAKKAGKAVGVVTTTRVQHASPAGAYAHTVNRNWYSDADLPADAQKNGCQDIAAQLVYNMDIDVILGGGRMYMFPEGTPDPEYPDDASVNGVRKDKQNLVQEWQAKHQGAQYVWNRTALLQAADDSSVTHLMGLFEPADMKYNVQQDHTKDPTLAEMTEAALQVLSRNPRGFYLFVEGGRIDHGHHDGKAYMALTEAIMFDNAIAKANELTSELDTLILVTADHSHVFSFGGYTLRGTSIFGLAPGKALDSKSYTSILYGNGPGYALGGGSRPDVNGSTSEEPSYRQQAAVPLASETHGGEDVAVFARGPQAHLVHGVQEETFVAHIMAFAGCVEPYTDCNLPAPA
light: B1 light
notes: Fab-enzyme fusion, dimer through the ALP subunits
B3: ALP fusion antibody of Example 1 (GS3 linker): Fab of rabbit anti-CD80 antibody, Fd-GS3-BIAPII (Fab)
heavy: QSVEESGGRLVTPGTPLTLTCTASGFSLSNNAVSWVRQAPGEGLEWIGTISSNDNTYYATWAKGRFTISKTSTTVDLKITSPTTEDTATYFCAIYYYGYGYVFNLWGPGTLVTVSSGQPKAPSVFPLAPCCGDTPSSTVTLGCLVKGYLPEPVTVTWNSGTLTNGVRTFPSVRQSSGLYSLSSVVSVTSSSQPVTCNVAHPATNTKVDKTVAPSTCSKPTGGGGSGGGGSGGGGSLIPAEEENPAFWNRQAAQALDVAKKLQPIQTAAKNVILFLGDGMGVPTVTATRILKGQMNGKLGPETPLAMDQFPYVALSKTYNVDRQVPDSAGTATAYLCGVKGNYRTIGVSAAARYNQCNTTRGNEVTSVINRAKKAGKAVGVVTTTRVQHASPAGAYAHTVNRNWYSDADLPADAQKNGCQDIAAQLVYNMDIDVILGGGRMYMFPEGTPDPEYPDDASVNGVRKDKQNLVQEWQAKHQGAQYVWNRTALLQAADDSSVTHLMGLFEPADMKYNVQQDHTKDPTLAEMTEAALQVLSRNPRGFYLFVEGGRIDHGHHDGKAYMALTEAIMFDNAIAKANELTSELDTLILVTADHSHVFSFGGYTLRGTSIFGLAPGKALDSKSYTSILYGNGPGYALGGGSRPDVNGSTSEEPSYRQQAAVPLASETHGGEDVAVFARGPQAHLVHGVQEETFVAHIMAFAGCVEPYTDCNLPAPA
light: B1 light
notes: as for B2
B4: ALP fusion antibody of Example 1 (EK3 linker): Fab of rabbit anti-CD80 antibody, Fd-EK3-BIAPII (Fab)
heavy: QSVEESGGRLVTPGTPLTLTCTASGFSLSNNAVSWVRQAPGEGLEWIGTISSNDNTYYATWAKGRFTISKTSTTVDLKITSPTTEDTATYFCAIYYYGYGYVFNLWGPGTLVTVSSGQPKAPSVFPLAPCCGDTPSSTVTLGCLVKGYLPEPVTVTWNSGTLTNGVRTFPSVRQSSGLYSLSSVVSVTSSSQPVTCNVAHPATNTKVDKTVAPSTCSKPTEAAAKEAAAKEAAAKLIPAEEENPAFWNRQAAQALDVAKKLQPIQTAAKNVILFLGDGMGVPTVTATRILKGQMNGKLGPETPLAMDQFPYVALSKTYNVDRQVPDSAGTATAYLCGVKGNYRTIGVSAAARYNQCNTTRGNEVTSVINRAKKAGKAVGVVTTTRVQHASPAGAYAHTVNRNWYSDADLPADAQKNGCQDIAAQLVYNMDIDVILGGGRMYMFPEGTPDPEYPDDASVNGVRKDKQNLVQEWQAKHQGAQYVWNRTALLQAADDSSVTHLMGLFEPADMKYNVQQDHTKDPTLAEMTEAALQVLSRNPRGFYLFVEGGRIDHGHHDGKAYMALTEAIMFDNAIAKANELTSELDTLILVTADHSHVFSFGGYTLRGTSIFGLAPGKALDSKSYTSILYGNGPGYALGGGSRPDVNGSTSEEPSYRQQAAVPLASETHGGEDVAVFARGPQAHLVHGVQEETFVAHIMAFAGCVEPYTDCNLPAPA
light: B1 light
notes: as for B2
B5: ALP fusion antibody of Example 1 (EK1 linker): Fab of rabbit anti-CD80 antibody, Fd-EK1-BIAPII (Fab)
heavy: B1 heavy with G221E, G222A, G223A, G224A, S225K
light: B1 light
notes: as for B2
B6: ALP fusion antibody of Example 1 (EK2 linker): Fab of rabbit anti-CD80 antibody, Fd-EK2-BIAPII (Fab)
heavy: B2 heavy with G221E, G222A, G223A, G224A, S225K, G226E, G227A, G228A, G229A, S230K
light: B1 light
notes: as for B2
B7: ALP fusion antibody of Example 2 (GS3): Fab of mouse anti-human IgG antibody, Fd-GS3-BIAPII (Fab, part only; not given: Fd and light chain of anti-IgG Fab, part only)
heavy, part: GGGGSGGGGSGGGGSLIPAEEENPAFWNRQAAQALDVAKKLQPIQTAAKNVILFLGDGMGVPTVTATRILKGQMNGKLGPETPLAMDQFPYVALSKTYNVDRQVPDSAGTATAYLCGVKGNYRTIGVSAAARYNQCNTTRGNEVTSVINRAKKAGKAVGVVTTTRVQHASPAGAYAHTVNRNWYSDADLPADAQKNGCQDIAAQLVYNMDIDVILGGGRMYMFPEGTPDPEYPDDASVNGVRKDKQNLVQEWQAKHQGAQYVWNRTALLQAADDSSVTHLMGLFEPADMKYNVQQDHTKDPTLAEMTEAALQVLSRNPRGFYLFVEGGRIDHGHHDGKAYMALTEAIMFDNAIAKANELTSELDTLILVTADHSHVFSFGGYTLRGTSIFGLAPGKALDSKSYTSILYGNGPGYALGGGSRPDVNGSTSEEPSYRQQAAVPLASETHGGEDVAVFARGPQAHLVHGVQEETFVAHIMAFAGCVEPYTDCNLPAPA
B8: ALP fusion antibody of Example 2 (GS1): Fab of mouse anti-human IgG antibody, Fd-GS1-BIAPII (Fab, part only; not given: Fd and light chain of anti-IgG Fab, part only)
heavy, part: GGGGSLIPAEEENPAFWNRQAAQALDVAKKLQPIQTAAKNVILFLGDGMGVPTVTATRILKGQMNGKLGPETPLAMDQFPYVALSKTYNVDRQVPDSAGTATAYLCGVKGNYRTIGVSAAARYNQCNTTRGNEVTSVINRAKKAGKAVGVVTTTRVQHASPAGAYAHTVNRNWYSDADLPADAQKNGCQDIAAQLVYNMDIDVILGGGRMYMFPEGTPDPEYPDDASVNGVRKDKQNLVQEWQAKHQGAQYVWNRTALLQAADDSSVTHLMGLFEPADMKYNVQQDHTKDPTLAEMTEAALQVLSRNPRGFYLFVEGGRIDHGHHDGKAYMALTEAIMFDNAIAKANELTSELDTLILVTADHSHVFSFGGYTLRGTSIFGLAPGKALDSKSYTSILYGNGPGYALGGGSRPDVNGSTSEEPSYRQQAAVPLASETHGGEDVAVFARGPQAHLVHGVQEETFVAHIMAFAGCVEPYTDCNLPAPA

Changes are numbered by the printed parent chain.

The first assay deals with T1, human CD80/B7-1 protein (His tag). The experiment in a line: sandwich chemiluminescence ELISA; capture rabbit anti-CD80 IgG on plate, antigen 0.005-20 ng/mL, binder as detection antibody at 200 ng/mL. Here is the method:
Rabbit anti-CD80 antibody (IgG) was diluted with PBS to 1 μg/mL. The resulting antibody solution was added to a 96-well black plate at 100 μL/well and allowed to stand overnight at 4° C. to immobilize the antibody in the wells. After removing the antibody solution from the plate, Buffer I′ (100 mM HEPES, 1% BSA, 0.05% ProClin (trademark), 1 mM MgCl₂, 0.1 mM ZnCl₂, pH 8.0) was added at 300 μL/well and allowed to stand overnight at 4° C. for blocking. After removing the solution from the plate, a human CD80/B7-1 protein (His tag) solution (0.005, 0.020, 0.078, 0.313, 1.25, 5.0 or 20 ng/mL) was added as an antigen solution at 100 μL/well. The plate was shaken at room temperature at 500 rpm for 1 hour to perform an antigen-antibody reaction. The plate was washed three times with a HISCL washing solution (Sysmex Corporation), and then each ALP fusion antibody (200 ng/mL) of Example 1 diluted with Buffer I′ was added at 100 μL/well. The plate was shaken at room temperature at 500 rpm for 1 hour to perform an antigen-antibody reaction. After washing the plate with a HISCL washing solution three times, a HISCL R5 reagent (Sysmex Corporation) as a solution of a chemiluminescent substrate of ALP was added at 100 μL/well, and luminescence intensity was immediately measured with FLUOstar OPTIMA (BMG LABTECH).
For orientation: In an ELISA, binding on a coated surface is turned into a signal by an enzyme label.
On to B1, for which the binding result is on record as “binds”.

For B2, the binding result is “binds”.

For B3, the binding result is on record as “binds”.

Consider B4, for which the binding result is listed as “binds”.

With B5, the binding result was “binds”.

In the case of B6, the binding result is reported as “binds”.

A further assay deals with human IgG antibody (human). The experiment in a line: sandwich chemiluminescence immunoassay on magnetic particles (HISCL-800); capture biotin-labeled mouse anti-human IgG semi-IgG; binder as detection antibody, 0.051 U/mL.
On to B7, for which the Counts (PC, R3 reagent stored at 4° C.) turned out to be 364000 counts.

Take B8: the Counts (PC, R3 reagent stored at 4° C.) was found to be 359000 counts.

For the next assay, the target named is human IgG antibody (human). The experiment in a line: sandwich chemiluminescence immunoassay (HISCL-800); PC counts over NC counts, R3 reagent stored at 4° C.
Molecule B7 had a S/N of 737.

In turn, B8 gave a S/N of 737.

A further assay addresses human IgG antibody (human). The experiment in a line: sandwich chemiluminescence immunoassay (HISCL-800); detection reagent stored at 40° C. for 1 week.
B7: the Counts (PC, R3 reagent stored at 40° C., 1 week) was 331000 counts.

For the molecule B8, the Counts (PC, R3 reagent stored at 40° C., 1 week) amounted to 320000 counts.
